Data from the nanobody polyreactivity screen of Harvey et al. (2022).

Assay: yeast display, Sf9 membrane polyspecificity reagent, FACS + sequencing; frameworks hold sequencing errors
Outline: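 A synthetic nanobody library was expressed on Saccharomyces cerevisiae BJ5465 by galactose induction for 36–48 hours. The library was stained for 1 hour at 4 °C with 10% biotinylated, detergent-solubilized Sf9 membrane reagent and enriched with streptavidin microbeads before FACS. Low and high (top ~1%) gates were set on anti-HA fluorescence for expression and streptavidin fluorescence for reagent binding, and each polyreactivity label reflects the gate of origin.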

Row | Sequence | polyreactivity (PSR sort gate)
1 | QVQRVESGGGLVQAGGRLRLSCAASGSTFLYNAMGWYRQAPGKERELVATISSGGGSTNYADSVKGRFTNSRDNAKNTVYLPMNSLKPEDTAVYYCAVEGYDSYKDDYWGQGTQVTVSS | low polyreactivity
2 | QVQLVESGGGLVQAGGSLRISCAASGLTFDRYAMGWYRQAPGKERELVAAISGSGSSTYYADSAKGRFTISRDNAKNTVYLQMNSLKPEDTAVYYCAADRDLGYDTRYNYWGQGTQVTVSS | low polyreactivity
3 | QVQLVESGVGLVQAGGTLRLSCAASGFTFVRYAMAWYRQAPGKEREFVASISARGCNTFYADSVKGRFTISRDNAKNTVYLQMNSLKPEDTAVYYCAKRGPYGTGYGYWGQGTQVTVSS | high polyreactivity
4 | QVQLVESGGGLVQAGGSLRLSCAASGRTFYRNAMGWYRQAPGKERELVAAISWRGGSTFYADSVKGRFTISRDNAKNTVYLQMNSLKPEDTAVYYCNAGSNSFSRVEYWGQGTQVTVSS | low polyreactivity
5 | QVQLVESGGGLVQAGGSLRLSCAASGLTFQWYAMGWYRQAPGKERELVAAISSRGGSTYYADSVKGRFTISRDNAKNTVYLQMNSLKPVDTAVYYCAVYTIGYLAWYQKFDYWGQGTQVTVSS | high polyreactivity
6 | QVQLVESGGGLVQAGGSLRLSCAASGSIFSYYAMGWYRQAPGKEREFVAAITKSGGSTYYADSVKGRFTISRDNAKNTVYLQMNSLKPEDTAVYYCAVRYKLYYYRYDYWGQGTQVTVSS | low polyreactivity
7 | QVQLVESGGGLVQAGGSLRLSCAASGSIFYYYAMGWYRQAPGKERELVAAITVSGGRTYYADSVKGRFTISRDNAKNTVYLQMNSLKPEDTAVYYCAAQIYGKYDYWGQGTQVTVSS | low polyreactivity
8 | QVQLVESGGGLVHAGGSLRLSCAASGRTFYANAMGWYRQAPGKERELVAAISSRSGTTHYADSEKGRFTISRDNAKNSVYLQMNSLKPEETAVYYCAVRYYRRRYDYWGQGTQVTVSS | low polyreactivity
9 | QVHLVESGGGLVQAGGSLRLSCAASGSTFYYYAMGWYRQAPGKERELVAVITSGGSTNYADSVKGRFTISRDYAKNSVYLQMNSLKPEDTAVYYCNVGPSTYYQYDYWGQGTQVTVSS | high polyreactivity
10 | QVQLVESGGGLVQAGGSLRLSCAASGFTFSGNAMGWYRQAPGKERELVAAITTTGVRTYYADSVKGRFTISRDNAKNTVYLQMNSLKPEDTAVYYCNKKRTQRVPVRYDYWGQGTQVTVSS | high polyreactivity
11 | QVQLVESGGGLVQAGGSLRLSCAASGSTSLYNMGWYRQAPGKERELVAAIDSGSTNYADSVKGRFTISRDNAKNTVYLQMNSLKPEDTAVYYCAADGTNIGVYDRASYRDDYWGQGTQVTVSS | low polyreactivity
12 | QVQLVESGGGLVQAGGSLRLSCAASGSIFVPYAMGWYRQAPGKERELVAAISSSTASTYYADSVKGRFTISRDNAKNTVYLQMNSLKPEDTAVYYCNAEQWDYGVRVAHYDYWGQGTQVTVSS | low polyreactivity
13 | QVQLVESGGGLVQAGGSLRLSCAASGFTFYSKAMGWYRQAPGKERQLVATIRSDGRTNYADSVKGRFTISRDNAKNTVYLQMNSLNPEDTAVYYCNADYRNDWGTPLWYAYNYWGQGTQVTVSS | low polyreactivity
14 | QVQLVESGGGLVQAGGSLRLSCAASGSIFGYYAMGWYRQAPGKERELVAAITRSGGRTYYADSVKGRFTISRDNAKNTVYLQMNSQKPEDTAVYYCATEWLKDRYPYGYWGQGTQVTVSS | high polyreactivity
15 | QVQLVESGGGLVQAGGSLRLSCAASGSTFRPYAMGGYRQAPGKERELVARITGSGDSTYYADSVKGRFTISRDNAKNTVYLQMNSLKPEDTAVYYCAREFVFSLSGFDYWGQGTQVSVSS | low polyreactivity
16 | QVQLVESGGGLVQAGGSLRLSCAASGSTFGGYVMGWYRQAPGKERELVAAISGNGASTTYADSVKGRFTISRDNAKNTVYLQLNSLKPEDTAVYYCAALYRKAHSDYDYWGQVTQVTVSS | low polyreactivity
17 | QVQLVESGGGLVQAGGSLRLSCAASGSTFYTNAMGWYRQAPGKERELVAAISGSGGSTNYADSVKGRFTISRDNAKNTVYLQMISLKPEDTAVYYGAADGSNYSGSVAAFPYRVDYWGQGTQVNVSS | low polyreactivity
18 | QVQLVESGGGLVQAGGSLRLSCAASGSTFFYYAMGWYRQAPGKERELVAGITSGASTTYADSVKGRFTISRDNAKNNVYLQMNSLKPEDTAVYYCAADHVESSWSDYDYWGQGTQVTVSS | low polyreactivity
19 | QVQLVETGGGLVQAGGSLRLSCASSGFTLRVNDMGWYRQAPGKERELVAGITVSGGSTYYADSVKVRFTISRDNAKNTVYLQMNSLKPEDTAVYYCNADNYENATVMDYWGQGTQVTVSS | low polyreactivity
20 | QVQLVESGGGLVQAGGSLRVSCAASGRTFGRYAMGWYRQATGKERELVAAISYSGGSTYYADSVKGRFTISRDNAKNNVYLQMNSLKPEDTAVYYCAAYYSGKDGYWGQGTQVTVSS | high polyreactivity
21 | QVQLVESGGGLVQAGGSLRLSCAASGFTFAFYAMGWYRQAPGKERELVAAISWDGVTTYYADSVKGRFTISRDNAKNTVYLQMNSLKPEDTAVYYCNVQWYGGYDYWGQGTQVTVSS | low polyreactivity
22 | QVQLVQSGGGLVQAGGSLRLSCAASGTTFRIYAMGWYRQAPGKEREFVAAISDRGGRTYYADSVKGRFTISRDNAKNTVYLQMNSLKPEDTAVYYCAAVKLLSSAPGDDGKMNYWGQGTQVTVSS | low polyreactivity

Row | Sequence | polyreactivity (PSR sort gate)
23 | QVQLVESGGGLVQAGGSLRLSCAASGNIFYTYAMGWYRQAPGKERELVAAITWSGGSTYYADSVKGRFTISRDNAKNTVYLQMNSLKPEDTAVYYCAAESLGYYYSGGYYSIYDHWGQGTQVTVSS | high polyreactivity
24 | QVQLVESGGGLVQAGGSLRLSSAHSAIIFCLNSMGWYRQEPGKERELVAAITITDGSTYYADSVKGRFTISRDNAKNTVYLQMNSLKPEDTAVYYCNADAIVSPYRLWTVTFYYWGQGTQVTVSS | low polyreactivity
25 | QVQLVESGGGLVQAGGSLRLSCAASGFTLYRYAMVWYRQAPGKERELVAAISRGSSTNYADSVKGRFTISRDNAKNTVYLQMNSLKPEDTAVYYCAARIVTLGSSRARSFTEYYWGQGTQVTVSS | high polyreactivity
26 | QVQLVESGGGLVQAGGSLRLSCAASGSIFYYYAMGWYRQAPGKERELVAAITVSGGSTYYADSVKGRFTISRDNAKNTVYLQMNSLKPEDTAVYYCAAVSLFRDSQFDYWGQGTQVTVSS | low polyreactivity
27 | QVQLVESGGRLLQAGGSLRLSCAASGRTFRRYAMGWYRPAPGKERELLAAISASGGSTYYADSVKGRFTISRDNAKNTVYLQMNSLKPEDTAVYYCAADWYSYLHGTKYGYWGQGTQVTVSS | high polyreactivity
28 | QGQLVESGGGLVQAGGSIRLSCAASGSTTFYAMGWYRQAPGKEWELVATISSSAGSTYYADSVKGRFTISRDNAKNTVYLQMNSLKPEDTAFYYCAKAAYGNSYTSDYWGQGTQVTVSS | low polyreactivity
29 | QVQLVESGGCLVQAGGSLRLSCAASGFIFSGYVMGWYRQAPGKERELVARIDGGGTTNYADSVKGRFTISRDNAKNTVYLQMNSLKPADTAVYYCNARFGEGFDYWGQGTQVTVSS | low polyreactivity
30 | QVQLVQSGGGLVQAGGSLRLSCAASGRIFGLNTMGWYRQAPGKERELVAAITSSAGSTYYADSVKGRFPISRDNAKNTVSLQMNSLKPEDTAVYYCAARVSYLGSFTSQRYYYWGQGTQVTVSS | high polyreactivity
31 | QVQLVESGGGLVQAGGSLRLSCAASGSTFVRNAMGWYRQAPGKERELVAGISTGDNTYYADSVKGRFTISRDNAKNTVYLQMNSLKPEDTAVYYCNADVYTEYDYWGQGTQVTVSS | low polyreactivity
32 | QVQLVESGGGLVQAGGSLRLSCAASGSIFVGNAMGWYRQAPGTERELVAAISSSGGSTYSADSVKGRFTISRDNAKNTVYLQMNSLKPEDTAVYYCAADTYSTSGYYYWGQGTQVTVSS | low polyreactivity
33 | QVQLVESGGGLVQAGGSLRLSCASSGIIFTFNAKGWYRQAPGKERELVAAISGRGARTYYADSVKGRFTISRDNAKNTVYLKMKSLKPEDTAVYYCAAPSNSYRSLSNSYQYYYWGQGSQVTVSS | high polyreactivity
34 | QVQLVESGGGLVQAGGSLRLSCAASGFTYHVYAMGWYRQAPGKERELVAAISTGDDTTFYADSVKGRFTISRDNAKNTVYLQMNSLKPEDSAVYYCAAEYQVEYYYTTNFLTTYDYWGQGTQVTVSS | low polyreactivity
35 | QVQLVESGGGLVQAGGSLRLSCAASGSTFAVYAMGWYRQAPGKVRELVAAMRYSGGSTYADSVKGRFTISRDNAKNTVYLQMNSLKPEDTAVYYCAAYVYSLGGEYGYWGQGTHVTVSS | high polyreactivity
36 | QVRLIESGGGLVQAGGSLRLSCAASGFTFFGNAMGWYRQAPGKERELVASISGSGTRTYYADSVKGRFTISRDNAKNTVYLQMNSLKPEDTAVYYCAARGSYSHGINYYWGQGTQVTVSS | high polyreactivity
37 | QVQLVESGGGLVQAGGSLRLSCAASGFTYSLYDMGWYRQAPGKERELVAAISSDGSTNYADSVKGRFTISRDNAKNTVYLQMNSLKPEDTAVYYCAADETFLSYWLNYWGQGTQVTVSS | low polyreactivity
38 | QVQLVESGGGLVQAGGSLRLSCAASGFIFVDNAMGWYRQAPGKERELVAAITYRGGSTYYADSVKGRFTISRDNAKNTVYLQMNSLKPEVTAVYYCNADYGDTFEYDYWGQGTQVTVSS | low polyreactivity
39 | QVQLVESGGGLVQAGGSLRLSCAAYGRIIRWYARGWYRPSPGKERALVAAISWSGGSTYYADSVKGRFTISRDNAKNTVYLQLNSLKPEDTAVYYCNTVYAEYDYSTVDYWGQGTQVTVSS | high polyreactivity
40 | QVQLVESGGGFVQAGGSHRLSCAASGRIFSCNAMGWYRQAPGKERELVAAITWRGTSTYYADSVKGRFTISRDNAKNTVYLQMNSLKPEDTAVYYWNGDYYYPADGRHYHYDYWGQGTQVTVSS | low polyreactivity
41 | QVQLVESGGGLVQAGGSHRLSCAASGRIIGYNPMGWYRQAPGKERELVASIRYSGGSTYYADSVKGRFTISRDNAKNPVYLQMNSLKPEDTAVYYCATRVTYRRRFDYWGQGTQVTVSS | high polyreactivity
42 | QVQHVESGRGLVQAGGSLRLSCAASGRIFQYYTMGRYRQAPGKERELVAAISRSGSSTYYADSVKGRFTISRDNAKNTVYLQMNSLKPEDTAVYYCAAVSEYYKGYDYWGQGTQVTVSS | high polyreactivity
43 | QVQLVESGGGLVQAGGSLRLSCAASGSIFSYYAMGGYRQAPGKARELVASISWNGTSTYYADSVKGRFTISRDNAKNTVYLQMNSLKPEDTAVYYCNVRFNYRGTYDYWGQGTQVTVSS | low polyreactivity
